According to IntAct's records for PubMed 36931259:

B1: 14-3-3 protein sigma (Homo sapiens), P31947 (parent)
chain: MERASLIQKAKLAEQAERYEDMAAFMKGAVEKGEELSCEERNLLSVAYKNVVGGQRAAWRVLSSIEQKSNEEGSEEKGPEVREYREKVETELQGVCDTVLGLLDSHLIKEAGDAESRVFYLKMKGDYYRYLAEVATGDDKKRIIDSARSAYQEAMDISKKEMPPTNPIRLGLALNFSVFHYEIANSPEEAISLAKTTFDEAMADLHTLSEDSYKDSTLIMQLLRDNLTLWTADNAGEEGGEAPQEPQS
partner: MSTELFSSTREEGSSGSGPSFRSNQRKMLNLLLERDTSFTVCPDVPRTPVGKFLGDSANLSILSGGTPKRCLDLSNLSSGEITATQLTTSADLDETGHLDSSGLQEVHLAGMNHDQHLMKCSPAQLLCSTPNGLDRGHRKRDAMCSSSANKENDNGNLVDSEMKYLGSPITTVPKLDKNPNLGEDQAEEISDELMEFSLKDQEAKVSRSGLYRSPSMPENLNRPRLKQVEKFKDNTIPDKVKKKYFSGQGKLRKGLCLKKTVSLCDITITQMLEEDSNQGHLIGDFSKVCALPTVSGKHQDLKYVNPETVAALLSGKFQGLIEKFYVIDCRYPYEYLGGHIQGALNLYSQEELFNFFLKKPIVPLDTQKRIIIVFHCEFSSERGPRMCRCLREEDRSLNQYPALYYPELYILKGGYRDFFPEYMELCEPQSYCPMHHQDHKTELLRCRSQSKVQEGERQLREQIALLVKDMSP
B2: 14-3-3 protein sigma (Homo sapiens), P31947 (parent)
chain: B1 chain
partner: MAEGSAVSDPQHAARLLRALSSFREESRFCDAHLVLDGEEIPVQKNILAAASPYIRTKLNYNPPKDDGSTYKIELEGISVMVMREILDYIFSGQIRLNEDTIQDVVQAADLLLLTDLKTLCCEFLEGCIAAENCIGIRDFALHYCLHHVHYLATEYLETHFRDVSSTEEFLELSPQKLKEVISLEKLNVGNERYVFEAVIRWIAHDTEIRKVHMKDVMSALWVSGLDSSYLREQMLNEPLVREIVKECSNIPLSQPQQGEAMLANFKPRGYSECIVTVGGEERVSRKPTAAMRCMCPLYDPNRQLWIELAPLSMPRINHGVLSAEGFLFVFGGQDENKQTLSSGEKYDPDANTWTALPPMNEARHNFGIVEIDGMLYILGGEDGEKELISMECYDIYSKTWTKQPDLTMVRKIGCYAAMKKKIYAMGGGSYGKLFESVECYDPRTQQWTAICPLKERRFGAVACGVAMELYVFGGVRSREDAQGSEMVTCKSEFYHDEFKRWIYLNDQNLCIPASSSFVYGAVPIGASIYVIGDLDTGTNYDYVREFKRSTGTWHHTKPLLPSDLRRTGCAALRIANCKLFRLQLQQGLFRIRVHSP
B3: 14-3-3 protein sigma (Homo sapiens), P31947 (parent)
chain: B1 chain
partner: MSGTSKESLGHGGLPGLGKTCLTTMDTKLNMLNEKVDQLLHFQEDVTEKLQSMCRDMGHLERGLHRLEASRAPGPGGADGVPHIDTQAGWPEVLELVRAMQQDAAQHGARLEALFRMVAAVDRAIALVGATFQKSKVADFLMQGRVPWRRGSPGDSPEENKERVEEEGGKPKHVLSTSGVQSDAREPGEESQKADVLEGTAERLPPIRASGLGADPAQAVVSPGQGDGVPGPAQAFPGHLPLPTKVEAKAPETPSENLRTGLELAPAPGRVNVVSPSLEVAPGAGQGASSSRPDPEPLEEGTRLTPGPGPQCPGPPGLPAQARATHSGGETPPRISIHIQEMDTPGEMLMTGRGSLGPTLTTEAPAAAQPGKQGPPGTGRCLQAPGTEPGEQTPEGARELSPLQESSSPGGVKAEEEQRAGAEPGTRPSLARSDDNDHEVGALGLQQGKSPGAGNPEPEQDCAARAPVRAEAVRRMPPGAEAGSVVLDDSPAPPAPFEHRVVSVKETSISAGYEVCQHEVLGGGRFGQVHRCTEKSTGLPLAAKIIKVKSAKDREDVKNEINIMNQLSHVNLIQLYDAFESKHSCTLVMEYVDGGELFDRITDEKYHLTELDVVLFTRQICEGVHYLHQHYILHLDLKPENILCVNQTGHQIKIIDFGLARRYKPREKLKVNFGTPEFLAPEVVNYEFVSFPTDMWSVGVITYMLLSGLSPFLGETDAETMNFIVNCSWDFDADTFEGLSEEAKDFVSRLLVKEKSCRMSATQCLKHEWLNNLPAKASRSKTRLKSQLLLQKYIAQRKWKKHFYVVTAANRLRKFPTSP
B4: 14-3-3 protein sigma (Homo sapiens), P31947 (parent)
chain: B1 chain
partner: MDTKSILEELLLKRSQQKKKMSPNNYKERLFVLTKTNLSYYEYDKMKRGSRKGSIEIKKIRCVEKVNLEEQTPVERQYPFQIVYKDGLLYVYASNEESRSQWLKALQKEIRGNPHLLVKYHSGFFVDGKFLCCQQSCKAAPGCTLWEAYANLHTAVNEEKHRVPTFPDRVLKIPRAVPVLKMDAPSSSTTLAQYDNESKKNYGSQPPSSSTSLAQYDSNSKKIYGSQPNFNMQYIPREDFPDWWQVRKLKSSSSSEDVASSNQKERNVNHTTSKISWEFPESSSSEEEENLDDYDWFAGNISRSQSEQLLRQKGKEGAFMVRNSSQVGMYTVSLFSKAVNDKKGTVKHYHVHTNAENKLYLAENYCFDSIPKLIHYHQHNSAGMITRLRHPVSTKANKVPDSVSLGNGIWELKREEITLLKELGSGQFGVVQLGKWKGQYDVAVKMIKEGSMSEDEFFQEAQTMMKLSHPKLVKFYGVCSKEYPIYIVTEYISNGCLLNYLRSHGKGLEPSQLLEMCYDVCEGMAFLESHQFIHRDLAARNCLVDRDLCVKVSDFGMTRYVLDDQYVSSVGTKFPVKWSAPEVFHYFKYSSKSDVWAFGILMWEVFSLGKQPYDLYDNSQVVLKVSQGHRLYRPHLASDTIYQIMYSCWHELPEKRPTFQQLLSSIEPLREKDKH
B5: 14-3-3 protein sigma (Homo sapiens), P31947 (parent)
chain: B1 chain
partner: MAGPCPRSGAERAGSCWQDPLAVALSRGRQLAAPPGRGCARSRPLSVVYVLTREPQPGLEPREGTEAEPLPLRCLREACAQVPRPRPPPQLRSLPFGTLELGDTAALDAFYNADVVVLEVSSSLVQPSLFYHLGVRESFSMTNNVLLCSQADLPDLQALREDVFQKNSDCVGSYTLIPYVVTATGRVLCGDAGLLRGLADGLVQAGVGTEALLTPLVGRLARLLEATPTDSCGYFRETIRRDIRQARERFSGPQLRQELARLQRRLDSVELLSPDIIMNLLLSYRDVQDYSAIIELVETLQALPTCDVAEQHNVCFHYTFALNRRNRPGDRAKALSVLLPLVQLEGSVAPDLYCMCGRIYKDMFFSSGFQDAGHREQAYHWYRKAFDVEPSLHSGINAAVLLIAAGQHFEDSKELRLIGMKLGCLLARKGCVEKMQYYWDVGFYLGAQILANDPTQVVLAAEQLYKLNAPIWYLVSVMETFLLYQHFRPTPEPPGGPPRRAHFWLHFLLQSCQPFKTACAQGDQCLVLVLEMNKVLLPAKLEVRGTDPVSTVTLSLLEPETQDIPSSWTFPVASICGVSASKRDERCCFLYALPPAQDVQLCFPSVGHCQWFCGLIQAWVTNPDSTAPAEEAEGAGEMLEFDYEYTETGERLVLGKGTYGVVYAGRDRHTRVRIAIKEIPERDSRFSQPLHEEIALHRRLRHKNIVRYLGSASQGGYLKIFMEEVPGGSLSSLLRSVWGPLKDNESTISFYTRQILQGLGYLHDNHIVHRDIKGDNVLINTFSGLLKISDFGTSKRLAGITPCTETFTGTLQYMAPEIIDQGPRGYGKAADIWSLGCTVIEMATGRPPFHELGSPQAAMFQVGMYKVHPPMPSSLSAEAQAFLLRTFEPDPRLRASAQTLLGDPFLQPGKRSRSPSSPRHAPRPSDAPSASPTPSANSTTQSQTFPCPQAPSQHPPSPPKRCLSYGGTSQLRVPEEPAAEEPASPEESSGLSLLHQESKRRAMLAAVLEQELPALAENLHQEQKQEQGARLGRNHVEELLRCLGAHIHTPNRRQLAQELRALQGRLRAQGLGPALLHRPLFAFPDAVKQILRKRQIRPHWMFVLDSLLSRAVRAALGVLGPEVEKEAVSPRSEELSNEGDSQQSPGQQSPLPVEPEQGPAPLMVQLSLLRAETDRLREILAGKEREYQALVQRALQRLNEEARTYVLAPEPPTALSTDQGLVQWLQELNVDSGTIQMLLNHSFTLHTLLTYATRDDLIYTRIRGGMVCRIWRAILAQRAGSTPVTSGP

Variants of: B1
Conditions: with mpip3_human CDC25C

| effect of a mutation on the interaction | Variant |
| --- | --- |
| decreasing interaction strength | K49E;R56E;V178D |

Variants of: B2
Conditions: with gan_human GAN

| effect of a mutation on the interaction | Variant |
| --- | --- |
| decreasing interaction strength | K49E;R56E;V178D |

Variants of: B3
Conditions: with mylk3_human MYLK3, Q32MK0

| effect of a mutation on the interaction | Variant |
| --- | --- |
| decreasing interaction strength | K49E;R56E;V178D |

Variants of: B4
Conditions: with bmx_human BMX

| effect of a mutation on the interaction | Variant |
| --- | --- |
| decreasing interaction strength | K49E;R56E;V178D |

Variants of: B5
Conditions: with m3k6_human MAP3K6, O95382

| effect of a mutation on the interaction | Variant |
| --- | --- |
| decreasing interaction strength | K49E;R56E;V178D |
